Reference: the supplement of paper PMC10567573

B1: CDC14A (parent)
chain: LWVQGDIFRSKLKNRPSSEGSINK

Variants of: B1
Experiment: protein stability index of a GFP-peptide fusion (GPS, HEK-293T) (PSI 1-6); higher = more stable
Conditions: c terminus: a fixed tail appended
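Also: lentivirally expressed fusions sorted by FACS into six bins by GFP to DsRed ratio, PSI derived from sequencing read proportions per bin multiplied by bin number.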

First: S18F
Second: S18Y
The protein stability index of the first is higher: 2.37 for the first, 2.01 for the second.

First: S18H
Second: S18N
The protein stability index of the first is higher: 3.27 for the first, 2.54 for the second.

Going from S18V to S18K, the protein stability index rises from 2.25 to 2.59.

First: S18Q
Second: S18T
The protein stability index of the first is lower: 2.39 for the first, 2.45 for the second.

Going from S18G to S18E, the protein stability index falls from 4.75 to 3.11.

First: S18L
Second: S18C
The protein stability index of the first is higher: 3.55 for the first, 3.17 for the second.

First: S18A
Second: S18R
The protein stability index of the first is higher: 2.58 for the first, 2.42 for the second.

Compared with S18D, S18P is lower in protein stability index: 3.11 for the first, 1.91 for the second.

First: S18I
Second: S18M
The protein stability index of the first is higher: 1.84 for the first, 1.8 for the second.

Compared with S18W, G20F is higher in protein stability index: 1.46 for the first, 2.3 for the second.

Compared with G20S, G20N is higher in protein stability index: 2.58 for the first, 2.76 for the second.

Going from G20Q to G20V, the protein stability index falls from 2.61 to 2.23.

Going from G20L to G20W, the protein stability index falls from 2.69 to 2.03.

Going from G20E to G20I, the protein stability index falls from 3.9 to 2.61.

Going from G20P to G20M, the protein stability index rises from 2.04 to 2.73.

Going from G20D to G20A, the protein stability index falls from 2.64 to 2.06.

Going from G20R to G20C, the protein stability index rises from 2.76 to 2.82.

Going from G20H to G20K, the protein stability index rises from 2.74 to 3.44.

Compared with G20T, R15H is lower in protein stability index: 2.85 for the first, 2.62 for the second.

First: R15V
Second: R15M
The protein stability index of the first is higher: 2.78 for the first, 2.07 for the second.

Going from R15I to R15T, the protein stability index rises from 2.52 to 3.26.

First: R15E
Second: R15S
The protein stability index of the first is higher: 3.02 for the first, 2.66 for the second.

Going from R15Q to R15N, the protein stability index falls from 3.09 to 2.57.

First: R15W
Second: R15K
The protein stability index of the first is lower: 2.25 for the first, 3 for the second.

Compared with R15A, R15C is lower in protein stability index: 2.81 for the first, 2.54 for the second.

Compared with R15F, R15G is higher in protein stability index: 2.39 for the first, 2.91 for the second.

Going from R15L to R15P, the protein stability index falls from 2.92 to 2.81.

First: R15Y
Second: R15D
The protein stability index of the first is higher: 3.17 for the first, 2.61 for the second.

First: P16E
Second: P16D
The protein stability index of the first is higher: 3.38 for the first, 2.89 for the second.

Going from P16L to P16I, the protein stability index rises from 1.57 to 2.36.

Going from P16V to P16M, the protein stability index rises from 1.64 to 2.17.

First: P16G
Second: P16W
The protein stability index of the first is higher: 2.02 for the first, 1.74 for the second.

Compared with P16A, P16F is lower in protein stability index: 2.8 for the first, 2.49 for the second.

First: P16Q
Second: P16H
The protein stability index of the first is lower: 2.5 for the first, 2.52 for the second.

Going from P16C to P16Y, the protein stability index falls from 1.92 to 1.91.

First: P16N
Second: P16R
The protein stability index of the first is lower: 2.51 for the first, 2.7 for the second.

Compared with P16S, P16T is higher in protein stability index: 2.52 for the first, 2.6 for the second.

Compared with P16K, S17P is lower in protein stability index: 2.68 for the first, 2.41 for the second.

Compared with S17K, S17E is lower in protein stability index: 2.45 for the first, 2.43 for the second.

Going from S17T to S17Q, the protein stability index falls from 2.82 to 2.05.

Compared with S17V, S17W is lower in protein stability index: 2.47 for the first, 2.17 for the second.

Going from S17H to S17G, the protein stability index rises from 2.77 to 2.87.

First: S17A
Second: S17I
The protein stability index of the first is higher: 3.12 for the first, 2.08 for the second.

Compared with S17F, S17N is higher in protein stability index: 1.66 for the first, 3.48 for the second.

Going from S17C to S17M, the protein stability index falls from 2.89 to 1.83.

First: S17L
Second: S17Y
The protein stability index of the first is higher: 2.63 for the first, 2.08 for the second.

Compared with S17D, K13N is lower in protein stability index: 2.85 for the first, 2.31 for the second.

First: K13V
Second: K13L
The protein stability index of the first is lower: 2.41 for the first, 2.94 for the second.

Going from K13Q to K13Y, the protein stability index falls from 2.69 to 1.89.

Compared with K13P, K13R is lower in protein stability index: 3.01 for the first, 2.67 for the second.

Compared with K13S, K13M is lower in protein stability index: 2.54 for the first, 1.93 for the second.

First: K13T
Second: E19W
The protein stability index of the first is higher: 2.7 for the first, 1.88 for the second.

Going from E19I to E19S, the protein stability index rises from 2.24 to 2.29.

Compared with E19N, E19H is lower in protein stability index: 2.48 for the first, 2.36 for the second.

Going from E19F to E19Q, the protein stability index rises from 1.7 to 2.49.

Going from E19M to E19C, the protein stability index rises from 2.02 to 2.44.

Compared with E19T, E19Y is lower in protein stability index: 1.88 for the first, 1.58 for the second.

Going from E19A to E19P, the protein stability index falls from 2.33 to 1.95.

Going from E19K to E19V, the protein stability index falls from 2.21 to 2.17.

Compared with E19D, E19G is lower in protein stability index: 2.88 for the first, 2.24 for the second.

Going from E19R to E19L, the protein stability index falls from 2.35 to 1.97.

Compared with I22K, I22E is higher in protein stability index: 2.06 for the first, 2.97 for the second.

First: I22H
Second: I22G
The protein stability index of the first is higher: 3.32 for the first, 3.21 for the second.

Going from I22F to I22A, the protein stability index rises from 2.51 to 3.1.

Compared with I22D, I22C is lower in protein stability index: 3.2 for the first, 2.59 for the second.

Compared with N14F, N14H is lower in protein stability index: 2.48 for the first, 2.26 for the second.

Compared with N14W, N14T is lower in protein stability index: 2.15 for the first, 1.88 for the second.

Compared with N14P, N14C is lower in protein stability index: 2.45 for the first, 2.13 for the second.

First: N14Q
Second: N14M
The protein stability index of the first is higher: 2.36 for the first, 2 for the second.

First: N14K
Second: N14D
The protein stability index of the first is lower: 2.55 for the first, 2.67 for the second.

First: N14E
Second: N14A
The protein stability index of the first is higher: 2.7 for the first, 2.6 for the second.

First: N14G
Second: N14R
The protein stability index of the first is higher: 2.24 for the first, 1.91 for the second.

Going from N14I to N14S, the protein stability index falls from 2.43 to 1.99.

First: N14L
Second: N14Y
The protein stability index of the first is lower: 2.47 for the first, 2.53 for the second.

Going from S21L to S21G, the protein stability index rises from 2.24 to 2.84.

Compared with S21K, S21Q is higher in protein stability index: 2.42 for the first, 3.15 for the second.

Compared with S21W, S21H is lower in protein stability index: 2.42 for the first, 2.41 for the second.

Compared with S21E, S21T is lower in protein stability index: 3.65 for the first, 3.13 for the second.

Going from S21C to S21M, the protein stability index falls from 2.64 to 2.15.

Going from S21N to S21A, the protein stability index rises from 2.18 to 2.77.

Compared with S21I, S21R is lower in protein stability index: 2.08 for the first, 1.73 for the second.

Compared with S21V, S21D is higher in protein stability index: 2.41 for the first, 4.21 for the second.

First: S21Y
Second: S21F
The protein stability index of the first is lower: 2.22 for the first, 2.46 for the second.

With S21P the protein stability index was 3.06.
